Reference: patent publication US20230416375A1 (VERSAPEUTICS, published 2023)
Like-named read-outs stand apart in the source and are kept apart here.

Legend:
[1] = molecular target: T1, wild type peptide LDKNTSRTIYDPVHA (SEQ ID NO:32) (human); test: peptide microarray substitution scan, Ab5.5 at 1 µg/mL
T1 construct: Printed on a peptide microarray; also called Homo sapiens Ryk(206-220)
T1 peptide: LDKNTSRTIYDPVHA

[2] = molecular target: T2, … variant with 9I exchanged by L (human); test: as above
T2 construct: Substitution scan peptide
T2 peptide: LDKNTSRTLYDPVHA

[3] = molecular target: … variants with 11D exchanged by other amino acids; test: as above
[4] = molecular target: … variants with 10Y exchanged by other amino acids; test: as above
[5] = molecular target: … variants with 12P exchanged by other amino acids; test: as above
[6] = molecular target: … variants with 13V replaced by other amino acids; test: as above
[7] = molecular target: … variants with 7R replaced by other amino acids; test: as above
[8] = molecular target: … variants with 8T exchanged by other amino acids; test: as above
full length human RYK = full length human RYK (human, UniProt P34925 26-607); test: cell-based or functional assay
full length mouse RYK = molecular target: T3, full length mouse RYK (mouse, UniProt Q01887 35-594); test: Western blot of RIPA lysates (30 µg per lane) of transfected HEK293 cells, Ab5.5_Var1 at 1 µg/mL, anti-human secondary, LI-COR detection
T3 construct: Expressed from a plasmid (Macheda et al.) in HEK293, and the lysate was probed by Western blot; also called Mus musculus Ryk

[9] = molecular target: T1, wild type peptide LDKNTSRTIYDPVHA (SEQ …); test: peptide microarray substitution scan, Ab5.5_var1 at 100 µg/mL
[10] = molecular target: T2, … variant with 9I exchanged by L; test: as above
[11] = molecular target: T4, peptides with the highly basic consensus motif TVLNFKRRKMCYKK (SEQ ID NO:30) (human); test: PEPperMAP linear epitope mapping: microarray of 15-mer peptides (14 aa overlap) of human Ryk 134-227, antibody at 10 µg/mL, goat anti-human IgG (Fc) DyLight680
T4 construct: Array spots were 15-mers sharing this motif; also called Homo sapiens Ryk(184-197)
T4 peptide: TVLNFKRRKMCYKK

[12] = molecular target: T5, peptides with the consensus motif TSRTIYDPV (SEQ ID NO:28) (human); test: as above
T5 construct: The array spots were adjacent 15-mers of human Ryk 134-227 sharing this motif; also called Homo sapiens Ryk(210-218)
T5 peptide: TSRTIYDPV

[13] = molecular target: T6, peptides with the highly basic consensus motif RRKMCYKKLEEVK (SEQ ID NO:31) (human); test: as above
T6 construct: Array spots were 15-mers sharing this motif; also called Homo sapiens Ryk(190-202)
T6 peptide: RRKMCYKKLEEVK

[14] = molecular target: T7, peptides with the highly basic consensus motif SSKNFTVLNFKRRK (SEQ ID NO:29) (human); test: as above
T7 construct: Array spots were 15-mers sharing this motif; also called Homo sapiens Ryk(179-192)
T7 peptide: SSKNFTVLNFKRRK

[15] = molecular target: … variants with 12P exchanged by other amino acids; test: peptide microarray substitution scan, Ab5.5_var1 at 100 µg/mL
[16] = molecular target: … variants with 13V replaced by other amino acids; test: as above
[17] = molecular target: … variants with 7R replaced by other amino acids; test: as above
[18] = molecular target: … variants with 8T exchanged by other amino acids; test: as above
[19] = molecular target: T4, peptides with the highly basic …; test: PEPperMAP linear epitope mapping: microarray of 15-mer peptides (14 aa overlap) of human Ryk 134-227, antibody at 10 µg/mL, goat anti-human IgG (Fc) DyLight680
[20] = molecular target: T5, peptides with the consensus motif …; test: as above
[21] = molecular target: T6, peptides with the highly basic …; test: as above
[22] = molecular target: T7, peptides with the highly basic …; test: as above
[23] = molecular target: T6, peptides with the highly basic …; test: PEPperMAP linear epitope mapping: microarray of 15-mer peptides (14 aa overlap) of human Ryk 134-227, goat anti-human IgG (Fc) DyLight680
[24] = molecular target: T8, single peptide NSSKNFTVLNFKRRK (SEQ ID NO:35) (human); test: PEPperMAP linear epitope mapping: microarray of 15-mer peptides (14 aa overlap) of human Ryk 134-227, antibody at 100 µg/mL, goat anti-human IgG (Fc) DyLight680
T8 construct: also called Homo sapiens Ryk(178-192)
T8 peptide: NSSKNFTVLNFKRRK

[25] = molecular target: T5, peptides with the consensus motif …; test: as above
[26] = molecular target: T9, peptides with the basic consensus motif VLNFKRRKMCYKK (SEQ ID NO:36) (human); test: as above
T9 construct: Array spots were 15-mers sharing this motif; also called Homo sapiens Ryk(185-197)
T9 peptide: VLNFKRRKMCYKK

B1: Ab5.5 (antibody, V domains shown)
VH: EVKLVESGGDLVQPGGSLKLSCAASGFTFSSYTMSWIRQTPEKRLEWVAYISNGGGGTYYPDTVKGRFTISRDNAKNTLYLQMNSLKSEDTAMYYCTRHGDNGDYWGHGSTLTVSS
VL: DIKMTQSPSSMYASLGERVTITCKASQDINSYLSWIQQKPGKSPKTLIYRANRLVDGVPSRFSGSGSGQDYSLTISSLEYEDMGIYYCLQYDEFPLTFGAGTKLELK
notes: Parental murine variable domains; also called Chimera antibody; Parental
binding result [1]: binds
binding result [2]: binds
% lower spot intensity than the wild type peptide [3]: > 83%
% lower spot intensity than the wild type peptide [4]: > 83%
% lower spot intensity than the wild type peptide [5]: 33%
% lower spot intensity than the wild type peptide [6]: > 58%
% lower spot intensity than the wild type peptide [7]: > 67%
% lower spot intensity than the wild type peptide [8]: 27%

B2: Ab5.5_var1 (antibody, V domains shown)
VH: EVQLVESGGGLVQPGGSLRLSCAASGFTFSSYTMSWIRQAPGKGLEWVAYISNGGGGTYYPDSVKGRFTISRDNAKNTLYLQMNSLRAEDTAVYYCTRHGDNGDYWGHGSLVTVSS
VL: DIQMTQSPSSLSASVGDRVTITCKASQDINSYLSWIQQKPGKAPKTLIYRANRLVDGVPSRFSGSGSGTDYTLTISSLQPEDFATYYCLQYDEFPLTFGAGTKVEIK
notes: Detected with anti-human IgG (Fc); also called variant 1; v1
IC50 of inhibition of canonical Wnt signaling (luciferase reporter) in HEK 293 STF cells stimulated with 250 ng/mL human Wnt-3a (full length human RYK): 484 µg/mL
binding result (full length mouse RYK): binds
binding result [9]: binds
binding result [10]: binds
binding result [11]: binds
binding result [12]: binds
binding result [13]: binds
binding result [14]: binds
% lower spot intensity than the wild type peptide [15]: 35%
% lower spot intensity than the wild type peptide [16]: > 62%
% lower spot intensity than the wild type peptide [17]: > 70%
% lower spot intensity than the wild type peptide [18]: 7.5%

B3: Ab5.5_var2 (antibody, V domains shown)
VH: EVQLVESGGGLVQPGGSLRLSCAASGFTFSSYTMSWIRQAPGKGLEWVAYISNGGGGTYYPDSVKGRFTISRDNAKNSLYLQMNSLRAEDTAVYYCTRHGDNGDYWGQGSLVTVSS
VL: DIQMTQSPSSLSASVGDRVTITCKASQDINSYLSWIQQKPGKAPKTLIYRANRLVDGVPSRFSGSGSGTDYTLTISSLQPEDFATYYCLQYDEFPLTFGAGTKVEIK
notes: Detected with anti-human IgG; also called Variant 2; variant 2
binding result [19]: binds
binding result [20]: binds
binding result [21]: binds
binding result [22]: binds

B4: Ab5.5_var10 (antibody, V domains shown)
VH: EVQLVESGGGLVQPGGSLRLSCAASGFTFSSYTMSWIRQAPGKGLEWAAYISTGGGGTYYVDSVKGRFTISRDNAKNSLYLQMNSLRAEDTAVYYCTRHGDNGDYWGHGSLVTVSS
VL: DIQMTQSPSSLSASVGDRATITCKASQDINSYLSWIQQKPGKAPKTLIYRANRLVDGVPSRFSGSGSGTDYTLTISSLQPEDFATYYCLQYDEFPLTFGGGTKVEIK
notes: Detected with anti-human IgG; also called variant 10; v10
binding result [23]: no binding (tested: 100 µg/mL)
binding result [24]: binds
binding result [25]: binds
binding result [26]: binds
